Values joined by “and” are separate entries in the source; they are usually repeats but may differ in a detail not shown here. Equal entries are not always repeated.
Target: acetamidofluorescein-F-actin on antifluorescein IgG-Sephacryl S-1000 beads (rabbit) (UniProt P68135)
Assay: co-sedimentation

Chain of myosin subfragment-1 (domain or fragment) (Q28641 whole entry, the tested form may be a part): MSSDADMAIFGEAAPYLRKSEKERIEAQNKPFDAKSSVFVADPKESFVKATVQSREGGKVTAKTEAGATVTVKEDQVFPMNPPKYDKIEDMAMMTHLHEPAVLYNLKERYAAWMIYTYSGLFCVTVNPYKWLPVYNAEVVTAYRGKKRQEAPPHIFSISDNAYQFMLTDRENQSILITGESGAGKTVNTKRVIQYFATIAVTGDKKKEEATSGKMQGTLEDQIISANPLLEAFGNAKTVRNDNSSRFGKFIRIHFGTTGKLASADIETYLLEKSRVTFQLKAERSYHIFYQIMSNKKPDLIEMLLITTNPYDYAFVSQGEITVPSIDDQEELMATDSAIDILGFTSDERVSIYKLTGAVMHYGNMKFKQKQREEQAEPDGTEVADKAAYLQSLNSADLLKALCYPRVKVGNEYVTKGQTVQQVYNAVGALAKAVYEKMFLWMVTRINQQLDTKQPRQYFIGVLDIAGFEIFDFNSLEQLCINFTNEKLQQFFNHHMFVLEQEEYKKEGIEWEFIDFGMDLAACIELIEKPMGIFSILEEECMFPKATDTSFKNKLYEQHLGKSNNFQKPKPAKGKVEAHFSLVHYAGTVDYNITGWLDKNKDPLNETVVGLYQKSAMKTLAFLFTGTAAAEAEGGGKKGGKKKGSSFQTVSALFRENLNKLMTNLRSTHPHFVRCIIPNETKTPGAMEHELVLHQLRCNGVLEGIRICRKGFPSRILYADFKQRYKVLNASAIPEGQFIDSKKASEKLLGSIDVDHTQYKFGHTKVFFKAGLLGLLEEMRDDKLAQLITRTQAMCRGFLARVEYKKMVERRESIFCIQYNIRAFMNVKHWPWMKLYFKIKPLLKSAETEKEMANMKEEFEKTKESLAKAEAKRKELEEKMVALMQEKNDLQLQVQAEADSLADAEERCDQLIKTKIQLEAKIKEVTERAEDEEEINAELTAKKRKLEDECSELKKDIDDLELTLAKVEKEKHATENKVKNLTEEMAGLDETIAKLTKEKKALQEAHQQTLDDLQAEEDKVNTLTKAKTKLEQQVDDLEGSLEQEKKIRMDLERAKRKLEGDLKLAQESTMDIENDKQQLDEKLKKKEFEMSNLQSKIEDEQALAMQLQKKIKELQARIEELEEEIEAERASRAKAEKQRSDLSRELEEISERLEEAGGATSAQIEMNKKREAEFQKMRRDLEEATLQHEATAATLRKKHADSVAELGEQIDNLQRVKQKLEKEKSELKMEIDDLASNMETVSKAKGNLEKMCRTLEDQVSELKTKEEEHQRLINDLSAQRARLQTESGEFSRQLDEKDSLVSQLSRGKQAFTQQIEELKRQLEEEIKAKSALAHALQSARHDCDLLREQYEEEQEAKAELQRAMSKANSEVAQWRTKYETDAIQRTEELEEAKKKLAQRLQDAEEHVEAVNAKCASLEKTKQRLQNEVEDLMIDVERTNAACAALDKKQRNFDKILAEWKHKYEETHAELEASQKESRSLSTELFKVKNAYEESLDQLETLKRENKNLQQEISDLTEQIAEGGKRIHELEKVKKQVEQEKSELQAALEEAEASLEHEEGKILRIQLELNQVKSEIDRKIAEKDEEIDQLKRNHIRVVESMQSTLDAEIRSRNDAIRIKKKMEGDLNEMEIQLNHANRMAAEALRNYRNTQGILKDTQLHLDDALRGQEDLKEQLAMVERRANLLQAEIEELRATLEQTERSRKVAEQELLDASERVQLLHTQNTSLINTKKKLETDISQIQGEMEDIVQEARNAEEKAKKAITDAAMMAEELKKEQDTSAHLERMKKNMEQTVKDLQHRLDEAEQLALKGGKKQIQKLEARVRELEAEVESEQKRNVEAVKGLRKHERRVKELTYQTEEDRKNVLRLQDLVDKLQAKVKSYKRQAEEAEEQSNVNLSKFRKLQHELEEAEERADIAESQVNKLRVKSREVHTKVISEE

Ki: 40 nM and 25 nM and 80 nM
Substance: myosin subfragment-1 (domain or fragment)
